Results from the domain aggregation screens of Martell et al. (2025).

Assay: soluble fraction after stress (log2 fold change); higher = more stays soluble; pooled small domains, quantitative proteomics
Conditions: stress: 75 degC
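Note: 20 min heating vs room temperature control held 20 min.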

Row | Sequence | soluble fraction (log2)
1 | HMLMSDEENAEFTKLYRQLVFKLHPDLNPNQTKDEENLWHKVQMAYKGGDLEEMRSLAIILDAQ | 0.0885
2 | HMAQDIEQLEKAVSFYTRMDPAAAALSITNLDQKTAVNILMRMKDKQASAVLESMTAERSSELIDSIARK | 0.0292
3 | HMNQRTATVTASQLNVRSGPSTAYSIVHVLRQGETVEVIGESDGWYQIRLKDGRVGWSSGQYLNLN | -0.142
4 | HMNDMWADITINANGKATLVVHTHEIKYLGLTGHLGKMEINGTAKEPVKDSSGDVVDYYFTFTDLDASMF | 0.328
5 | HMFEQRLRQAMKELRLKQVQVAGLTGKSRGAISQYLSGDRVPPDGVQREMAIALGLEADYFSR | -0.85
6 | HMIVMPELRGKDLKEAERLLSSHNLRYELVDSVYDKSLAPGVVVEMVPQSGNTVKPGRIIFLSINA | -0.982
7 | HMSGIQNNFITRLKKVLAPTIGIAEEISDLLNISIDSAYRRIRGETDFTFEEIYIITRKHKISIDEIYG | -3.88
8 | HMSEPQYKVLFSNLDDRDGGAIVTALGAMNVPYKYNDTGTALLVPADRVYDARLQLASQGLPRG | 0.262
9 | HMAPPPLAGAREALREQIRRGSLSARRGFDAYADALGLPAGTRGAHPIFAALQRLDYPQALRLLDQEPT | -0.0614
10 | HMTSPVEDLLDKAIQLYREENFEEAIAKWEEVLALDPSKLEAKFNIEIAQDRIKEKQIQEDLKSS | 0.341
11 | HMIEIKNLSFSYGKKKQSVFNDFSLTLDKGSVYGLLGKNGTGKSTLLYLMTGLLRPQAGQVLYKGVDVS | 0.141
12 | HMGHEALSSKLDEIQGVGKEKRSLLLDHFKTFERIKNASMEELEAVPSLGKNTAKAVFRFFHS | -0.0805
13 | HMLGSGSKEQQLVILNNILERQVQAFNLQGGQEYPMVTLKNFYNTLSKMIENAGLKNVENYFVNPDVGKQM | -0.392
14 | HMKLRKINLIGIFGSKTAPSALVRLTNGRVLKVGLGELLDGGRVTAIGRSSLTYNKSGKSITLNMPI | -4.08
15 | HMIQLKEHDVVRLRETIVENDEKIPAGTRGVVLSVYDGGRAFAVEVADDRAASAIITAFRDQLEVY | -0.467
16 | HMTVLPTEQDAKALVGLGEEEAAKIVEGNGWTYRIGSRDGEQFMLTEDFVTSRLTLGIEKAIVMTATI | -0.906
17 | HMVFADRLRALRKKSGLTQDEFSKQTGIGRSAVGMYESGKREPNYTTLSKVARFYHVSTDYLLGRTDTP | -1.52
18 | HMIAVLEEGSRFRAINDISGKPFGPEMIIKNGQVIAAGKKILTKPKKLIGKKEGTKFNISGKEYVIKDI | -0.747
19 | HMDPALSPAEQKIWDLLAAGETHIDDLVRASGLPVATVNSALVMMEMKEVISQVAAKTYRRNRRN | -1.3
20 | HMGSPVTAVMNRVLNETERQIVTLHVISGFKHREIAELLEKPVGTVLWTYNNALGKMRKAMQRE | -1.67
21 | HMDVIGLEAAKSAAVKDAGISSPTFTKATLDRDDGRSLYEIEFISGSTKYEYDIDALTGSVLSKKTRALS | 0.207
22 | HMTTTFGWENLVGEKGIAATDLHPSGWVTVKDQRVFVVSEGTFIEEGKEVEIMNVDGNRIVVREFKN | 0.216
23 | HMDEQVETLKNLISELPKEQLEVLVMRHYEDLSFKEISEKTGVSINTALGRMRYALINIRKLMKENN | -0.145
24 | HMEPVTETVYAMDTVNIRAAADQTSEKIGSVTVGTALTRTGTDGDWSIIDYNGTTGYVKSEFLSNTAPEV | 0.253
25 | HMTANDKRNALYRKIEVGRRQLPAMDEVAFRQLLAAEFGVESRKDMSVGQLSRLVNILAEKGAVF | -0.741
26 | HMKLGYTVHGNVVTVKAVANGISLYNTIGQKVAESTDGQTVKAPAHGVYILSVQGKSGSRETAKIVI | -1.67

Row | Sequence | soluble fraction (log2)
27 | HMSDFEASDPALLREGMRVQHLNFGKGTVITIEGAGANKKASVAFDGVGTKQLMLRFARLKIIYE | -2.59
28 | HMTGIQLNDRERAILQHLSDGLTTKAIAERIFLREDTVKWYRKNLLARFEQPIVAALVKWAVLEGLV | 0.0483
29 | HMAIELTPRQLDIIELVRKHAPITGEQIAELLGVTRPSIRSDLGLLVMLGYIDAKPKVGYFAGPRM | -1.16
30 | HMGRDWKTDLLNLATARGWGDVSYEVTGEGPDHARVYTAVAIVANQKTGTGVGPSKKEAERLAAEQAYRML | -0.099
31 | HMQEKQIIDGREFYIHQVERGITLYSIAKQYNVKVADIQAENPFLEAGLQPGQTLKIPLDKVETVQEIK | -0.218
32 | HMHFEWNELRKAINDFLAEQNMNEDKQLGPYFIQRDIVVPETGTEIDSKKFSEVFKHKVIMYLFDDAAKQ | 0.0433
33 | HMDIINLADNIARLRRRRQITQEELADYLGVTKAAVSKWENRQTMPDILLLPRLAGLFEVTIDELVGY | -2.19
34 | HMLMYAQDEKEEASNNIPYRLLHMSFTKEQKAELQRAMDVRVPKDIILSYFYPDTPVARMMEIRRQYESA | -0.814
35 | HMQRYFINEPVPEDQRLVLPKDIAHHLVDVLRAEQNDELEVALNDQKVYLARLISLNPATVELQSDLG | 0.465
36 | HMLQLDATDRALIVATQGGLPLVPRPYQVVGEQLGISGEEVVARLRALLDAGVIRRIGAVPN | -0.569
37 | HMIELDRTNLLGVFGPKSRPYALLMLSNGEMIKISIGDQFFGWRVYGIDEKSIQVQNGTKQEILRIP | -3.91
38 | HMKKILITGNSGYIGSHLSKMLENDYEVHGLDIRQPQHPVAKFYEQDINRPINIEEEYDAVIHLAALV | -0.348
39 | HMTEELLNQRKETMLALLNDPTYVPMKLKELAMLLNLSRDQRDELREVMESLEQDGKVILTKRGKYKIP | -0.261
40 | HMKNLTEVEYSEFLESIAQDRVSKVQVDGLIIRGEMNDGQRFETVQPQVTDKALIDDMVNHRVDFSGARP | 0.295
41 | HMAVKLELYRVFKEVAETGNISAAAKNLYISQSAVSQSIKQLETALQARLFARSPRGVTLTGEGQMLYQYV | -1.5
42 | HMRFGNHHVYRTLMVLSDQKRKGRKQIADAVGIGEGSMRTIIEYLRGLDMIDIRQTGVKITRHGNAFL | -0.115
43 | HMKHYIDFIAEQLKTLTAIPSPSGYTKNATDYLMKLLQDMGYEPKLSRKGNVFVTLGGDGEPLVLAAHVD | 0.112
44 | HMKEVELENMIKAKGFKDAAVLVDERSVTVIVESERLAAGDSASIKELVSRGTGVDPQNVVII | -0.31
45 | HMNSSTVDLAKEFLIDLLSSVEKMPASEVQEEAKNAGYSVASIRRAKDNLNIKPFKDGSAWYWKLPSIFK | -0.329
46 | HMASAKTVAQSGTYKFAKTTAIKSSASDAASTVGTYYKGNTVNYNAKVTTNGQTWLRYTSYSGAQYYVKVS | -3.66
47 | HMRIEDTMDYINKIKEKLKNNGGVITSKEFTRSNIPTIYLTRMVETGELIRIDRGIYINSSG | -0.781
48 | HMNMAVELEDGTQIFVFSEDGEFAGKRAVIADEEGRPTEENAPAGTHTLRDGRSIVVGEGGVIESVVET | -0.0672
49 | HMSTGGDLTQRERELLGLMARGLSNQEISKRLTIAMPTVKFHVTNILAKLHADNRTEAVLVALKNKLVAL | -1.02
50 | HMFKLPRTIGTFEDSDVVIGAGKFGPYIMHNKKFVSLPKSEDPLTIGLERAIELISAKREQEKQRH | 0.265
51 | HMDDERDRLVQQAMEGLSPALREILLLAYFQRMPYNQIAESLRIPLGTVKSRLHAAVAAFAKRWQELNRS | -0.77
52 | HMNELTDKQILLFSNKLAHNIPFSSKYSKPGESYEEFAERLANELIDPQKVKLYKPYLEEVGFK | 0.788

Row | Sequence | soluble fraction (log2)
53 | HMIDIGSKIKKLRSKKSIEIGKKYTGAMLANELGISRSYLGDIESGRTVPNEIILGKIADIFDVDIYELIG | -1.06
54 | HMGQKNEDESLAKFYVHKKGNQYGPYSLIQIREYLKNNSFSLDDLASWDGQSWKKISQIPNLN | 0.12
55 | HMATVHPIRIQGGMTTQQGGKTVWLWVSDEGRLMTEDEIAGESGGTVSSRMVRGVRVLTGTGVIYG | -1.96
56 | HMIQVNKTQALIIEEMRDNPNITLLELQKTLSLGRTAIQNNVSSLRKRQIIKRVGSNKNGYWEVTDK | -1.89
57 | HMSVLNLQTDIPKKYTDVLGTSVKGRLNTLVHNVIINSVDRPVIQMSEEVHEAMQGLRIFMFENVYRNPV | 0.187
58 | HMGIAKYRQVTEWIQNRIATGELNRGDQIESENDISRTFGISRQTVRHALGLLEQQGILTRIQGRGTFVRD | -1.45
59 | HMDVQGFVMDLDKPLDKEPIVEGFELKLEDSLTLVAAVNKDKSINSLFDELSKLGIKVKSMRNPP | 0.0316
60 | HMTKKFQIQTLDKLNVRKVADWNASAVTTVKKGQILDVVAEVSPKNGSTKMYKLESGLYITASEKYVKKQG | -1.65
61 | HMQSREISYSDFVASVERGEVATVILDGENIRFKGGDNVEYVTVRPADTNVTDLLIENQVVVRAEK | 0.231
62 | HMENSPLTHREAEVMRLMSEGKSNRAISEHLVISEKTVKNHVSSILQKMSVDDRTQAVLQAIKNGWVD | 0.281
63 | HMGQISDDGALKKLASEVLAANPQALADWKAGKQQAVSFLVGQAMKASKGRGDAALLGELIRAALD | 0.2
64 | HMTFEPVYDENSRILILGTFPSVKSREQQFYYGHPQNRFWKLLAALTGWKVPKTISEKKELLLQNGIA | -0.208
65 | HMIDTTKILPGQEFKNMQELSVALTGQKMPAGKGYVLQQEKFKLYFSWKKITGTHKLIIDEIYEEPKT | -3.23
66 | HMQEHAHLWRLMEDNRSFKADYIAFENGIVLLQNLSSGKISQYPITDFSIEDQLLILKRHELTAHINAN | -3.3
67 | HMNKLSISALAETVSTKRKEKSMTQQDLSDATGINRALISRLEQKDFIPSIPQLEKLEEILGFELEEVF | -0.324
68 | HMQESVTVSAQALRRLLEKGDGDAALLYLALLRHHGTIQPRALAGELRWERPRIEAAEEALRQMGLIA | -0.48
69 | HMTDIKYLIADGNDIKHWDTASSSYVKVSELPLTSDKFKIYGDDIYHKERTGIIAASPILKIWSPSAE | 0.384
70 | HMVWMIEKDQSVILVNKLERIQVEALGKALENGNFGDRIRVINNKSGQKLLGIVESEKKIQIISKI | -2.92
71 | HMQVTPQVLRLLDVLGDKELSLRQIAEALGLSDRKNIMRNYVVPALDSGRVVRTVPNKPNSRFQKYRK | -0.739
72 | HMAESNQIQLSDVREALNMIGPASWLDLVHYLDTGKGRGGQRLRRMLKSLSRSGEIELVARGTYQITDN | -0.437
73 | HMEMNPLDIQNKAAELAQQWLQLPVGERQKQMAAVRTSNPNLHAMAKQKMEEMRSQAESQGRQSLSQP | 0.324
74 | HMQGPDPYAVLGIDRHADERAIKRAYRKLISEHHPDRLGDLPEDMRKRAESRASEINAAYDRIKEARGF | 0.0522
75 | HMTVSLLQTRQRLQALADLGHYKGDLGAAWGPDAIEALKKAQATLGVTVDGKWGPQTEDAIQVALKVQ | -0.237
76 | HMDIEITIPPEAKELDVSKILISGNIITDEQEFLDYLKQNNVAAFKDGNYKLNKNMTTEEIVNQIK | 0.691
